The results in this text go back to the supplement of paper PMC9112550, “Optimization of the antimicrobial peptide Bac7 by deep mutational scanning” (BMC Biology, 2022).

This data set deals with Escherichia coli TOP10. Briefly: shrunken log2 fold change of peptide-encoding DNA abundance (4.5 h post-induction vs induction); higher = less antimicrobial activity (less host growth inhibition). The following applies: time post-induction: 4.5 h; library: site-saturation at positions 5, 18, 19, 20.
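Also: peptides expressed intracellularly from a pBAD plasmid library in pooled LB shake-flask culture, induced with 0.3% L-arabinose, DNA abundance read by NGS, three biological replicates, DESeq2 with apeglm shrinkage.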

With RRIRFRPPRLPRPRPRPEDNPRP, the “shrunken log2 fold change” value was -0.00777.
As for RRIRHRPPRLPRPRPRPFTIPRP, the “shrunken log2 fold change” value was -0.0345.
As for RRIRSRPPRLPRPRPRPDMMPRP, the “shrunken log2 fold change” value was -0.36.
In the case of RRIRTRPPRLPRPRPRPHLGPRP, the “shrunken log2 fold change” value is 0.0458.
On to RRIRSRPPRLPRPRPRPDAGPRP, for which the “shrunken log2 fold change” value worked out at 0.569.
Consider RRIRWRPPRLPRPRPRPPHDPRP, for which the “shrunken log2 fold change” value worked out at 0.738.
As to RRIRHRPPRLPRPRPRPFDAPRP, the “shrunken log2 fold change” value was found to be 0.00493.
Take RRIRHRPPRLPRPRPRPDRIPRP: the “shrunken log2 fold change” value was -0.495.
In the case of RRIRQRPPRLPRPRPRPVATPRP, the “shrunken log2 fold change” value was -0.00506.
On to RRIRVRPPRLPRPRPRPGSPPRP, for which the “shrunken log2 fold change” value was 0.187.
As to RRIRTRPPRLPRPRPRPYVRPRP, the “shrunken log2 fold change” value worked out at 0.0143.
On to RRIRQRPPRLPRPRPRPIFKPRP, for which the “shrunken log2 fold change” value is -0.208.
With RRIRRRPPRLPRPRPRPQNLPRP, the “shrunken log2 fold change” value was -0.276.
Turning to RRIRLRPPRLPRPRPRPRASPRP, the “shrunken log2 fold change” value was found to be 0.516.
For RRIRFRPPRLPRPRPRPPWIPRP the value was 0.3; for RRIRRRPPRLPRPRPRPIDIPRP, -0.118.
Next, RRIRCRPPRLPRPRPRPQCNPRP: -0.5; RRIRHRPPRLPRPRPRPRYRPRP: -0.109.
RRIRVRPPRLPRPRPRPCLFPRP: the “shrunken log2 fold change” value was -0.592.
As for RRIRTRPPRLPRPRPRPIYRPRP, the “shrunken log2 fold change” value is -0.0278.
For RRIRIRPPRLPRPRPRPMYRPRP, the “shrunken log2 fold change” value was -0.0946.
As to RRIRYRPPRLPRPRPRPINHPRP, the “shrunken log2 fold change” value is -0.675.
As to RRIRRRPPRLPRPRPRPWTFPRP, the “shrunken log2 fold change” value is -0.103.
On to RRIRTRPPRLPRPRPRPGPGPRP, for which the “shrunken log2 fold change” value amounted to 0.484.
For RRIRERPPRLPRPRPRPVERPRP the value was -0.00844.
RRIRWRPPRLPRPRPRPYRLPRP: the “shrunken log2 fold change” value amounted to 0.00724.
For the sequence RRIRPRPPRLPRPRPRPFKFPRP, the “shrunken log2 fold change” value was -0.469.
Turning to RRIRNRPPRLPRPRPRPVFPPRP, the “shrunken log2 fold change” value was -0.000239.
In the case of RRIRWRPPRLPRPRPRPPGWPRP, the “shrunken log2 fold change” value is 0.527.
RRIRNRPPRLPRPRPRPHFTPRP: the “shrunken log2 fold change” value was -0.0512.
With RRIRRRPPRLPRPRPRPDQKPRP, the “shrunken log2 fold change” value is -0.0181.
Regarding RRIRFRPPRLPRPRPRPHSCPRP, the “shrunken log2 fold change” value is -0.249.
For the sequence RRIRCRPPRLPRPRPRPMWRPRP, the “shrunken log2 fold change” value stood at 0.276.
As to RRIRSRPPRLPRPRPRPWHWPRP, the “shrunken log2 fold change” value stood at 0.211.
Next, RRIRHRPPRLPRPRPRPHTDPRP: -0.212; RRIRWRPPRLPRPRPRPMSLPRP: -0.0247.
For the sequence RRIRPRPPRLPRPRPRPGNPPRP, the “shrunken log2 fold change” value is -0.043.
Take RRIRDRPPRLPRPRPRPYFCPRP: the “shrunken log2 fold change” value is -0.177.
For RRIRIRPPRLPRPRPRPHRDPRP, the “shrunken log2 fold change” value was -0.236.
Turning to RRIRRRPPRLPRPRPRPCYMPRP, the “shrunken log2 fold change” value was -0.191.
For RRIRKRPPRLPRPRPRPQGWPRP, the “shrunken log2 fold change” value was found to be 0.116.
Turning to RRIRNRPPRLPRPRPRPCVHPRP, the “shrunken log2 fold change” value was -0.0018.
Regarding RRIRSRPPRLPRPRPRPDHLPRP, the “shrunken log2 fold change” value was -0.0228.
For RRIRPRPPRLPRPRPRPQHGPRP the value was -0.189.
For RRIRDRPPRLPRPRPRPQECPRP the value was 0.0795; for RRIRFRPPRLPRPRPRPVYCPRP, -0.408; for RRIRPRPPRLPRPRPRPEFDPRP, 0.33.
Regarding RRIRYRPPRLPRPRPRPVWQPRP, the “shrunken log2 fold change” value was -0.288.
As for RRIRQRPPRLPRPRPRPNVQPRP, the “shrunken log2 fold change” value came out at 0.031.
Consider RRIRTRPPRLPRPRPRPCAAPRP, for which the “shrunken log2 fold change” value turned out to be 0.0451.
For RRIRWRPPRLPRPRPRPDICPRP, the “shrunken log2 fold change” value was -0.0379.
Regarding RRIRYRPPRLPRPRPRPTTQPRP, the “shrunken log2 fold change” value is -0.597.
For the sequence RRIRDRPPRLPRPRPRPYTKPRP, the “shrunken log2 fold change” value was -1.06.
Turning to RRIRMRPPRLPRPRPRPYQVPRP, the “shrunken log2 fold change” value was -0.393.
As for RRIRGRPPRLPRPRPRPFRNPRP, the “shrunken log2 fold change” value came out at 0.0285.
In the case of RRIRWRPPRLPRPRPRPRNDPRP, the “shrunken log2 fold change” value was 0.126.
As to RRIRPRPPRLPRPRPRPHWAPRP, the “shrunken log2 fold change” value was -0.0709.
As for RRIRDRPPRLPRPRPRPLSKPRP, the “shrunken log2 fold change” value is 0.132.
Take RRIRCRPPRLPRPRPRPCVYPRP: the “shrunken log2 fold change” value is -0.411.
In the case of RRIRTRPPRLPRPRPRPAWRPRP, the “shrunken log2 fold change” value stood at 0.594.
For RRIRDRPPRLPRPRPRPPVPPRP, the “shrunken log2 fold change” value was found to be 0.635.
Turning to RRIRNRPPRLPRPRPRPGCAPRP, the “shrunken log2 fold change” value is 0.426.
RRIRHRPPRLPRPRPRPGFEPRP: the “shrunken log2 fold change” value amounted to 0.373.
For the sequence RRIRARPPRLPRPRPRPDRYPRP, the “shrunken log2 fold change” value is -0.474.
For RRIRIRPPRLPRPRPRPNELPRP, the “shrunken log2 fold change” value is -0.056.
For the sequence RRIRDRPPRLPRPRPRPARPPRP, the “shrunken log2 fold change” value was 0.569.
Turning to RRIRDRPPRLPRPRPRPHFIPRP, the “shrunken log2 fold change” value was -0.0922.
For the sequence RRIRWRPPRLPRPRPRPAWDPRP, the “shrunken log2 fold change” value is 1.05.
On to RRIRHRPPRLPRPRPRPNTVPRP, for which the “shrunken log2 fold change” value stood at 0.0932.
Next, RRIRVRPPRLPRPRPRPYTCPRP: -0.164; RRIRRRPPRLPRPRPRPCGMPRP: 0.114; RRIRGRPPRLPRPRPRPMTAPRP: 0.692.
On to RRIRERPPRLPRPRPRPNEHPRP, for which the “shrunken log2 fold change” value was -0.445.
For RRIRHRPPRLPRPRPRPFLHPRP the value was -0.449.
As for RRIRVRPPRLPRPRPRPQQFPRP, the “shrunken log2 fold change” value worked out at 0.0811.
For RRIRCRPPRLPRPRPRPEWQPRP the value was -0.0271; for RRIRGRPPRLPRPRPRPCWSPRP, 0.144; for RRIRCRPPRLPRPRPRPGGEPRP, 0.538.
RRIRHRPPRLPRPRPRPDMNPRP: the “shrunken log2 fold change” value was -0.178.
For RRIRVRPPRLPRPRPRPQLKPRP the value was -0.177.
For RRIRWRPPRLPRPRPRPDMDPRP the value was 0.0441; for RRIRMRPPRLPRPRPRPQKTPRP, -0.0249.
Consider RRIRNRPPRLPRPRPRPRMTPRP, for which the “shrunken log2 fold change” value worked out at 0.259.
For RRIRMRPPRLPRPRPRPQRMPRP the value was 0.583.
As for RRIRIRPPRLPRPRPRPYNCPRP, the “shrunken log2 fold change” value was -0.411.
For the sequence RRIRFRPPRLPRPRPRPTYCPRP, the “shrunken log2 fold change” value was -0.339.
Take RRIRQRPPRLPRPRPRPTGKPRP: the “shrunken log2 fold change” value is -0.00964.
In the case of RRIRKRPPRLPRPRPRPNEGPRP, the “shrunken log2 fold change” value worked out at 0.0728.
Next, RRIRRRPPRLPRPRPRPITHPRP: -0.287.
On to RRIRKRPPRLPRPRPRPIWTPRP, for which the “shrunken log2 fold change” value is -0.00674.
As to RRIRSRPPRLPRPRPRPLKRPRP, the “shrunken log2 fold change” value is 0.026.
Consider RRIRIRPPRLPRPRPRPQVHPRP, for which the “shrunken log2 fold change” value was -0.707.
For RRIRWRPPRLPRPRPRPGFYPRP, the “shrunken log2 fold change” value came to 0.0692.
RRIRHRPPRLPRPRPRPPKFPRP: the “shrunken log2 fold change” value is -0.223.
RRIRMRPPRLPRPRPRPNAYPRP: the “shrunken log2 fold change” value worked out at 0.311.
On to RRIRERPPRLPRPRPRPCSEPRP, for which the “shrunken log2 fold change” value was 0.0641.
Take RRIRKRPPRLPRPRPRPVDPPRP: the “shrunken log2 fold change” value was 0.417.
Consider RRIRRRPPRLPRPRPRPEMTPRP, for which the “shrunken log2 fold change” value turned out to be 0.638.
For RRIRARPPRLPRPRPRPADEPRP the value was 0.678; for RRIRGRPPRLPRPRPRPWYMPRP, 0.0753; for RRIRTRPPRLPRPRPRPSIRPRP, -0.183.
With RRIRCRPPRLPRPRPRPIGCPRP, the “shrunken log2 fold change” value is -0.00449.
Take RRIRYRPPRLPRPRPRPDLDPRP: the “shrunken log2 fold change” value is -0.181.
RRIRPRPPRLPRPRPRPDPQPRP: the “shrunken log2 fold change” value was -0.0397.
Take RRIRLRPPRLPRPRPRPYPPPRP: the “shrunken log2 fold change” value is -0.866.
Next, RRIRWRPPRLPRPRPRPTLRPRP: 0.0881.
On to RRIRGRPPRLPRPRPRPTGTPRP, for which the “shrunken log2 fold change” value was 0.517.
RRIRKRPPRLPRPRPRPEGQPRP: the “shrunken log2 fold change” value came to 0.107.
Regarding RRIRPRPPRLPRPRPRPFIAPRP, the “shrunken log2 fold change” value was -0.342.
With RRIRPRPPRLPRPRPRPAGVPRP, the “shrunken log2 fold change” value worked out at 0.392.
For RRIRKRPPRLPRPRPRPSTAPRP, the “shrunken log2 fold change” value was -0.177.
For RRIRSRPPRLPRPRPRPKVLPRP, the “shrunken log2 fold change” value was 0.248.
In the case of RRIRIRPPRLPRPRPRPNICPRP, the “shrunken log2 fold change” value is -0.147.
With RRIRERPPRLPRPRPRPHWSPRP, the “shrunken log2 fold change” value is -0.71.
With RRIRARPPRLPRPRPRPANHPRP, the “shrunken log2 fold change” value was -0.129.
Turning to RRIRGRPPRLPRPRPRPGMIPRP, the “shrunken log2 fold change” value worked out at 0.309.
Consider RRIRCRPPRLPRPRPRPNNCPRP, for which the “shrunken log2 fold change” value is -0.636.
For RRIRHRPPRLPRPRPRPWVIPRP the value was 0.00302; for RRIRYRPPRLPRPRPRPQTNPRP, -0.711.
Next, RRIRSRPPRLPRPRPRPTQGPRP: 0.36; RRIRERPPRLPRPRPRPIMKPRP: -0.376.
RRIRKRPPRLPRPRPRPSQAPRP: the “shrunken log2 fold change” value was -0.0142.
Regarding RRIRCRPPRLPRPRPRPPVEPRP, the “shrunken log2 fold change” value amounted to 0.35.
As to RRIRIRPPRLPRPRPRPIMYPRP, the “shrunken log2 fold change” value is -0.0494.
Take RRIRQRPPRLPRPRPRPEGMPRP: the “shrunken log2 fold change” value is 0.13.
